Article PMC6751169

Legend:
[1] = target: T1, MenDRA (MenD-RIAD with one RIAD peptide tag) (E. coli); experiment: SEC; 1.5 mg of enzyme fused with RIAD mixed with two-fold molar excess of enzyme fused with RIDD in Tris buffer pH 7.8, 1 mM EDTA, 0.02% Tween-20, no incubation; Superdex 200 10/300 GL, 0.4 mL/min, Tris pH 7.8, 50 mM NaCl; masses from a calibration curve
T1 sequence (P17109 whole entry, looked up): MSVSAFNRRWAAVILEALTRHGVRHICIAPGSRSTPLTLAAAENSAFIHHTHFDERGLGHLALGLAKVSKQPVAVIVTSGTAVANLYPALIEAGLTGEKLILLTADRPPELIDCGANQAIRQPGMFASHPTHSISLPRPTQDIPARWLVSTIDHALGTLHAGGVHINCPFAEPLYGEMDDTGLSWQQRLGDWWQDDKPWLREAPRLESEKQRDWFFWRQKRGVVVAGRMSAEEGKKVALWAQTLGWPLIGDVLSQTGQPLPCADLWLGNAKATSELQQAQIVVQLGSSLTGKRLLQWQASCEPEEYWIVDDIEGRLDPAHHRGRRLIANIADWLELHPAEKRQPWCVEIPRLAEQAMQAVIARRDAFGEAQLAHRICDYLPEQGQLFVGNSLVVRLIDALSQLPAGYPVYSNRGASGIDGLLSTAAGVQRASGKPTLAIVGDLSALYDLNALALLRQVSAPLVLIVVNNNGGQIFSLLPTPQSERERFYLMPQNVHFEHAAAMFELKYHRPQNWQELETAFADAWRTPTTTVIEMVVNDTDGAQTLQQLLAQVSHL

[2] = target: T2, MenDRA2 (MenD-RIAD-RIAD with two sequential RIAD peptide tags) (E. coli); experiment: as above
T2 sequence (P17109 whole entry, looked up): T1 sequence (P17109 whole entry, looked up)

B1: MenHRD (MenH-RIDD with one RIDD peptide tag), P10644 1-44 (enzyme)
chain: MILHAQAKHGKPGLPWLVFLHGFSGDCHEWQEVGEAFADYSRLYVDLPGHGGSAAISVDGFDDVTDLLRKTLVSYNILDFWLVGYSLGGRVAMMAACQGLAGLCGVIVEGGHPGLQNAEQRAERQRSDRQWVQRFLTEPLTAVFADWYQQPVFASLNDDQRRELVALRSNNNGATLAAMLEATSLAVQPDLRANLSARTFAFYYLCGERDSKFRALAAELAADCHVIPRAGHNAHRENPAGVIASLAQILRFGGGGSGGGGSGGGGSSLRECELYVQKHNIQALLKDSIVQLCTARPERPMAFLREYFEKLEKEEAK
modifications: not checked
[1]
  stoichiometry N (MenH per 4 MenD (per particle)): 8
[2]
  stoichiometry N (MenH per 4 MenD (per particle)): 16
